# From US20080249043
# Legend:
# [1] = molecular target: His-tagged PLS3 (wild-type phospholipid scramblase 3) (UniProt Q9NRY6)
# [2] = molecular target: His-tagged PLS3(T21A) (UniProt Q9NRY6)
# [3] = molecular target: first 50-aa fragment of PLS3, His-tagged (UniProt Q9NRY6)
# Chain of His-tagged PLS3(T21A) (Q9NRY6 other isoform, or with tags, fused parts or gaps T21A): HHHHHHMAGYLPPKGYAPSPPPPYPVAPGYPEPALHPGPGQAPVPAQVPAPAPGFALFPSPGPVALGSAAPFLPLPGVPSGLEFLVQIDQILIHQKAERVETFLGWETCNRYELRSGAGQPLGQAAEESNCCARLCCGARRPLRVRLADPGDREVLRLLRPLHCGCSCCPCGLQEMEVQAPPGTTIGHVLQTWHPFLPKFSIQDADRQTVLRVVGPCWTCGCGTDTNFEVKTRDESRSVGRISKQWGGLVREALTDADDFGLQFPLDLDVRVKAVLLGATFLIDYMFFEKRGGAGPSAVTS
substance,measurement,setting,value
Recombinant human PKC-δ enzyme (Calbiochem),"in vitro phosphorylation with [γ-32P]ATP, autoradiography",[1],Phosphorylation was seen in both full-length PLS3 and its N-terminal fragment of PLS3
same,"in vitro phosphorylation with [γ-32P]ATP, autoradiography",[2],mutation at Thr21 nearly eliminated PLS3 phosphorylation by PKC-δ
same,"in vitro phosphorylation with [γ-32P]ATP, autoradiography",[3],Phosphorylation was seen in both full-length PLS3 and its N-terminal fragment of PLS3
